The values below come from patent US20260242419A1, “A CYCLIC PEPTIDE FOR TRAPPING INTERLEUKIN-1 BETA” (Merck Sharp & Dohme LLC, priority 2023, published 2026).

Sequences and labels used below:
B1: SEQ ID NO: 205 (peptide)
peptide: cyclo([Bip(4'-COOH)][4Pal][Phe(4-COOH)]G[Pro(cis-4-F)][Trp(βS-Me,4-F)][Aib]SW[Aib][Ala(pyrimidin-5-yl)]Q[Dab][Sar][dPro(4R-(4-pyridylmethyl))])
modifications: ring closure inferred; not fully specified (bridges); printed as Bip4CO2H-4Pal-Phe4COOH-G-Proc4F-SbMeW4F-Aib-S-W-Aib-PyrimAla-Q-Dab-Sar-dProc4CH24Pal, cyclic (macrolactam)
B2: SEQ ID NO: 209 (peptide)
peptide: cyclo([Bip(4'-COOH)][4Pal][Phe(4-COOH)]G[cisHyp][Trp(βS-Me,4-F)][Aib]SW[αMeD][Ala(pyrimidin-5-yl)]Q[Dab][Sar][dPro(4R-(4-pyridylmethyl))])
modifications: ring closure inferred; not fully specified (bridges); printed as Bip4CO2H-4Pal-Phe4COOH-G-Proc4OH-SbMeW4F-Aib-S-W-aMeD-PyrimAla-Q-Dab-Sar-dProc4CH24Pal, cyclic (macrolactam)
B3: SEQ ID NO: 210 (peptide)
peptide: cyclo([Bip(4'-COOH)][4Pal][Phe(4-COOH)]G[cisHyp][Trp(βS-Me,4-F)][Aib]SW[αMeD][Ala(4-THP)]Q[Dab][Sar][dPro(4R-(4-pyridylmethyl))])
modifications: ring closure inferred; not fully specified (bridges); printed as Bip4CO2H-4Pal-Phe4COOH-G-Proc4OH-SbMeW4F-Aib-S-W-aMeD-AlaTHP4-Q-Dab-Sar-dProc4CH24Pal, cyclic (macrolactam)
B4: SEQ ID NO: 207 (peptide)
peptide: cyclo([Bip(4'-COOH)][4Pal][Phe(4-COOH)]G[cisHyp][Trp(βS-Me,4-F)][Aib]SW[d(αMeS)][Ala(4-THP)]Q[Dab][Sar][dPro(4R-(4-pyridylmethyl))])
modifications: ring closure inferred; not fully specified (bridges); printed as Bip4CO2H-4Pal-Phe4COOH-G-Proc4OH-SbMeW4F-Aib-S-W-daMeS-AlaTHP4-Q-Dab-Sar-dProc4CH24Pal, cyclic (macrolactam)
B5: SEQ ID NO: 215 (peptide)
peptide: cyclo([Bip(4'-CONH2)][4Pal][Phe(4-COOH)]G[Pro(cis-4-F)][Trp(βS-Me,4-F)][Aib]SW[d(αMeS)][Ala(4-THP)]Q[Dab]G[dPro(4R-(4-pyridylmethyl))])
modifications: ring closure inferred; not fully specified (bridges); printed as Bip4CONH2-4Pal-Phe4COOH-G-Proc4F-SbMeW4F-Aib-S-W-daMeS-AlaTHP4-Q-Dab-G-dProc4CH24Pal, cyclic (macrolactam)
B6: SEQ ID NO: 216 (peptide)
peptide: cyclo([Bip(4'-CONH2)][Ala(1-bicyclo(1.1.1)pentyl)][Phe(4-COOH)]G[Pro(cis-4-F)][Trp(βS-Me,4-F)][Aib]SW[d(αMeS)][Ala(4-THP)]Q[Dab]G[dPro(3S-(4-F-Bn))])
modifications: ring closure inferred; not fully specified (bridges); printed as Bip4CONH2-AlaPent-Phe4COOH-G-Proc4F-SbMeW4F-Aib-S-W-daMeS-AlaTHP4-Q-Dab-G-dProc3Bn4F, cyclic (macrolactam)
B7: SEQ ID NO: 213 (peptide)
peptide: cyclo([Bip(4'-COOH)][4Pal][Phe(4-COOH)]G[cisHyp][Trp(βS-Me,4-F)][Aib]SW[d(αMeS)][Ala(4-THP)]Q[Dab]G[dPro(4R-(4-pyridylmethyl))])
modifications: ring closure inferred; not fully specified (bridges); printed as Bip4CO2H-4Pal-Phe4COOH-G-Proc4OH-SbMeW4F-Aib-S-W-daMeS-AlaTHP4-Q-Dab-G-dProc4CH24Pal, cyclic (macrolactam)
B8: SEQ ID NO: 204 (peptide)
peptide: cyclo([Bip(4'-COOH)][Ala(1-bicyclo(1.1.1)pentyl)][Phe(4-COOH)]G[Pro(cis-4-F)][Trp(βS-Me,4-F)][Aib]SW[d(αMeS)][Ala(4-THP)]Q[Dab]G[dPro(4R-(4-pyridylmethyl))])
modifications: ring closure inferred; not fully specified (bridges); printed as Bip4CO2H-AlaPent-Phe4COOH-G-Proc4F-SbMeW4F-Aib-S-W-daMeS-AlaTHP4-Q-Dab-G-dProc4CH24Pal, cyclic (macrolactam)
B9: SEQ ID NO: 206 (peptide)
peptide: cyclo([Bip(4'-COOH)][4Pal][Phe(4-COOH)]G[Pro(cis-4-F)][Trp(βS-Me,4-F)][Aib]SW[d(αMeS)][Ala(pyrimidin-5-yl)]Q[Dab][Sar][dPro(4R-(4-pyridylmethyl))])
modifications: ring closure inferred; not fully specified (bridges); printed as Bip4CO2H-4Pal-Phe4COOH-G-Proc4F-SbMeW4F-Aib-S-W-daMeS-PyrimAla-Q-Dab-Sar-dProc4CH24Pal, cyclic (macrolactam)
B10: SEQ ID NO: 211 (peptide)
peptide: cyclo([Bip(4'-COOH)][4Pal][Phe(4-COOH)]G[Pro(cis-4-F)][Trp(βS-Me,4-F)][Aib]SW[Aib][Ala(4-THP)]Q[Dab]G[dPro(4R-(4-pyridylmethyl))])
modifications: ring closure inferred; not fully specified (bridges); printed as Bip4CO2H-4Pal-Phe4COOH-G-Proc4F-SbMeW4F-Aib-S-W-Aib-AlaTHP4-Q-Dab-G-dProc4CH24Pal, cyclic (macrolactam)
B11: SEQ ID NO: 208 (peptide)
peptide: cyclo([Bip(4'-COOH)][4Pal][Phe(4-COOH)]G[Pro(cis-4-F)][Trp(βS-Me,4-F)][Aib]SW[αMeD][Ala(4-THP)]Q[Dab][Sar][dPro(4R-(4-pyridylmethyl))])
modifications: ring closure inferred; not fully specified (bridges); printed as Bip4CO2H-4Pal-Phe4COOH-G-Proc4F-SbMeW4F-Aib-S-W-aMeD-AlaTHP4-Q-Dab-Sar-dProc4CH24Pal, cyclic (macrolactam)
B12: SEQ ID NO: 212 (peptide)
peptide: cyclo([Bip(4'-COOH)][4Pal][Phe(4-COOH)]G[cisHyp][Trp(βS-Me,4-F)][Aib]SW[Aib][Ala(4-THP)]Q[Dab]G[dPro(4R-(4-pyridylmethyl))])
modifications: ring closure inferred; not fully specified (bridges); printed as Bip4CO2H-4Pal-Phe4COOH-G-Proc4OH-SbMeW4F-Aib-S-W-Aib-AlaTHP4-Q-Dab-G-dProc4CH24Pal, cyclic (macrolactam)

Non-standard residues stand in square brackets, D forms with d. dPro(4R-(4-pyridylmethyl)) = O=C(O)[C@H]1C[C@@H](Cc2ccncc2)CN1; Trp(βS-Me,4-F) = C[C@@H](c1c[nH]c2cccc(F)c12)[C@H](N)C(=O)O; Bip(4'-CONH2) = NC(=O)c1ccc(-c2ccc(C[C@H](N)C(=O)O)cc2)cc1; Bip(4'-COOH) = N[C@@H](Cc1ccc(-c2ccc(C(=O)O)cc2)cc1)C(=O)O; Ala(1-bicyclo(1.1.1)pentyl) = N[C@@H](CC12CC(C1)C2)C(=O)O; dPro(3S-(4-F-Bn)) = O=C(O)[C@@H]1NCC[C@@H]1Cc1ccc(F)cc1; Ala(pyrimidin-5-yl) = N[C@@H](Cc1cncnc1)C(=O)O; Phe(4-COOH) = N[C@@H](Cc1ccc(C(=O)O)cc1)C(=O)O; Pro(cis-4-F) = O=C(O)[C@@H]1C[C@H](F)CN1; Ala(4-THP) = N[C@@H](CC1CCOCC1)C(=O)O; cisHyp = O=C(O)[C@@H]1C[C@H](O)CN1; 4Pal = N[C@@H](Cc1ccncc1)C(=O)O; αMeD = C[C@](N)(CC(=O)O)C(=O)O; d(αMeS) = C[C@@](N)(CO)C(=O)O; Dab = NCC[C@H](N)C(=O)O; Aib = CC(C)(N)C(=O)O; Sar = CNCC(=O)O

The target in the experiment is Recombinant human IL-1β (BioLegend 579404) (human, UniProt P01584 117-269). As to the kind of experiment: cell-based or functional assay.
With B1, the “MRC5 IC50” value was 0.028 nM.

In the case of B2, the “MRC5 IC50” value was 0.034 nM.

With B3, the “MRC5 IC50” value amounted to 0.029 nM. With B4 the figure was 0.044 nM; with B5, 0.01 nM; with B6, 0.008 nM. With B7 the figure was 0.021 nM. For B8, the “MRC5 IC50” value is 0.017 nM. Turning to B9, the “MRC5 IC50” value stood at 0.022 nM. With B10 the figure was 0.019 nM. As to B11, the “MRC5 IC50” value stood at 0.015 nM.

As for B12, the “MRC5 IC50” value came out at 0.029 nM.
